# Source: publication doi:10.1101/2025.08.27.672337, “Cyclin-dependent kinase-like 5 (CDKL5) binds to talin and is anchored at the postsynaptic density via direct interaction with PDZ domains” (bioRxiv, 2025)
# Where “and” joins values, the source holds several entries; their conditions need not be identical. Identical values can stand only once. Where no end group is shown, it is not given here. maleimide‑fluorescein = Maleimide-fluorescein dye, coupled to a cysteine thiol
# T1: SHANK3 PDZ domain (mouse, UniProt Q4ACU6 570-664)
# T1 construct: SHANK3 PDZ domain, mouse, UniProt Q4ACU6, residues 570-664; Expressed from pET151; His-tag removed with AcTEV protease
# T1 sequence (looked up): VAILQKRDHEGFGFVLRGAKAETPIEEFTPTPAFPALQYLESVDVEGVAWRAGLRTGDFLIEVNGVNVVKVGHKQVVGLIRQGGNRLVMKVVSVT
# T2: SHANK1 PDZ domain (mouse, UniProt D3YZU1 654-762)
# T2 construct: SHANK1 PDZ domain, mouse, UniProt D3YZU1, residues 654-762; Expressed from pET151; His-tag removed with AcTEV protease; 15N-labelled for NMR
# T2 sequence (looked up): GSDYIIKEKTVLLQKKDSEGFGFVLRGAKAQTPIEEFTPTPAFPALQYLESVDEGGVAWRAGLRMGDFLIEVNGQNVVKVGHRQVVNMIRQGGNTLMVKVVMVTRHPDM
# T3: SHANK2 PDZ domain (mouse, UniProt Q80Z38 247-340)
# T3 construct: SHANK2 PDZ domain, mouse, UniProt Q80Z38, residues 247-340; Expressed from pET151; His-tag removed with AcTEV protease; 15N-labelled for NMR
# T3 sequence (looked up): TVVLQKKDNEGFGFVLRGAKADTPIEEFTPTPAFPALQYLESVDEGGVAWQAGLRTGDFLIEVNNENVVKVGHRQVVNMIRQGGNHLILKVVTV
# B1: CDKL5-1^941-960 peptide, fluorescein-labelled (peptide)
# peptide: C(maleimide‑fluorescein)YNRTNRSRMPNLNDLKETAL
# notes: single non-native N-terminal cysteine for coupling the dye; ends in -ETAL (957-960); also called CDKL5-1 C-terminal tail peptide; CDKL5 isoform 1 C-terminus; source: synthetic peptide (GLBiochem, Shanghai)
# B2: CDKL5-1^941-960 peptide, unlabelled (peptide)
# peptide: CYNRTNRSRMPNLNDLKETAL
# notes: single non-native N-terminal cysteine with which the synthetic peptides were designed; ends in -ETAL (957-960); Used unlabelled in NMR; also called CDKL5-1 C-terminal tail peptide; CDKL5-1 peptide; source: synthetic peptide (GLBiochem, Shanghai)
# B3: CDKL5^213-234 peptide (NMR) (peptide)
# peptide: CGESEIDQLFTIQKVLGPLPSEQ
# notes: single non-native N-terminal cysteine with which the synthetic peptides were designed; source: synthetic peptide (GLBiochem, Shanghai)
# B4: CDKL5^213-234 peptide, dye-labelled for FP (peptide)
# peptide: C(maleimide‑fluorescein)GESEIDQLFTIQKVLGPLPSEQ
# notes: single non-native N-terminal cysteine for coupling the dye; source: synthetic peptide (GLBiochem, Shanghai)
# Tests used:
# Settings in all cases: both partners purified
# SHANK3 PDZ domain = target: T1, SHANK3 PDZ domain; test: fluorescence polarisation; dye-labelled peptide against a twofold serial dilution of the protein in PBS (10 mM Na2HPO4, 1.8 mM KH2PO4, pH 7.4, 137 mM NaCl, 2.7 mM KCl), 25°C; one-site total binding fit; triplicate
# SHANK1 PDZ domain [1] = target: T2, SHANK1 PDZ domain; test: as above
# PSD-95 PDZ3 domain [2] = target: T4, PSD-95 PDZ3 domain (human, UniProt P78352 302-402); test: as above
# T4 construct: PSD-95 (postsynaptic density protein 95) PDZ3, human, UniProt P78352, residues 302-402; codon optimised synthetic gene; Expressed from pET151; His-tag removed with AcTEV protease; 15N-labelled for NMR; also called PDZ3 of PSD-95
# PSD-95 PDZ2 domain [3] = target: T5, PSD-95 PDZ2 domain (human, UniProt P78352 155-249); test: as above
# T5 construct: PSD-95 (postsynaptic density protein 95) PDZ2, human, UniProt P78352, residues 155-249; codon optimised synthetic gene; Expressed from pET151; His-tag removed with AcTEV protease; 15N-labelled for NMR; also called PDZ2 of PSD-95
# SHANK2 PDZ domain [4] = target: T3, SHANK2 PDZ domain; test: as above
# SHANK1 PDZ domain [5] = target: T2, SHANK1 PDZ domain; test: NMR titration; 15N-HSQC of 15N-labelled protein at 150 µM with peptide added (1:0.5 to 1:5 molar ratios); 12 mM NaH2PO4, 6 mM Na2HPO4, pH 6.5, 50 mM NaCl, 2 mM DTT, 5% D2O, 298K
# PSD-95 PDZ3 domain [6] = target: T4, PSD-95 PDZ3 domain; test: as above
# PSD-95 PDZ2 domain [7] = target: T5, PSD-95 PDZ2 domain; test: as above
# SHANK2 PDZ domain [8] = target: T3, SHANK2 PDZ domain; test: as above
# talin1 R7R8 [9] = target: T6, talin1 R7R8 (mouse, UniProt P26039 1357-1659); test: as above
# T6 construct: talin1 rod domains R7R8, mouse, UniProt P26039, residues 1357-1659; Expressed from pET151; His-tag removed with AcTEV protease; 15N-labelled for NMR; also called talin R7R8
# talin1 R8 = target: T7, talin1 R8 (mouse, UniProt P26039 1461-1580); test: as above
# T7 construct: talin1 rod domain R8, mouse, UniProt P26039, residues 1461-1580; Expressed from pET151; His-tag removed with AcTEV protease; 15N-labelled for NMR; also called talin R8; R8 rod domain of talin
# talin1 R7R8 [10] = target: T6, talin1 R7R8; test: fluorescence polarisation; dye-labelled peptide against a twofold serial dilution of the protein in PBS (10 mM Na2HPO4, 1.8 mM KH2PO4, pH 7.4, 137 mM NaCl, 2.7 mM KCl), 25°C; one-site total binding fit; triplicate
# T4 sequence (P78352 302-402): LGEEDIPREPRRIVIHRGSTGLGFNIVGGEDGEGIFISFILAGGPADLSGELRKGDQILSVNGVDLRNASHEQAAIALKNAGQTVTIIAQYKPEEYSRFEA
# T6 sequence (P26039 1357-1659): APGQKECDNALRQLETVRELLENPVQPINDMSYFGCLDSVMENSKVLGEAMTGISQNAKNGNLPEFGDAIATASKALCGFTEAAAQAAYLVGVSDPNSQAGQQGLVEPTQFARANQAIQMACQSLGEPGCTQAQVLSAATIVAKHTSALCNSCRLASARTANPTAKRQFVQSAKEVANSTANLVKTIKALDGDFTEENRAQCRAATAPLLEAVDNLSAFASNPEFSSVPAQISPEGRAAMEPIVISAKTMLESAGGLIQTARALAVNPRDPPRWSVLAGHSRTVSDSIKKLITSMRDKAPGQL
# T5 sequence (P78352 155-249): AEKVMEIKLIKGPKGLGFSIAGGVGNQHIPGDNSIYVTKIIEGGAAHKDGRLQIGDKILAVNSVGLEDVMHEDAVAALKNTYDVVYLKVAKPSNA
# T7 sequence (P26039 1461-1580): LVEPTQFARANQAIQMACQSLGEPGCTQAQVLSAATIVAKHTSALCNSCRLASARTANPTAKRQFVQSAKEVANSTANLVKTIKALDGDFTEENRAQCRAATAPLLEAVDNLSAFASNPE
binder,measurement,setting,value
B1,Kd,SHANK3 PDZ domain,8.6 µM
same,Kd,SHANK1 PDZ domain [1],8.5 µM and 7.6 µM
same,Kd,PSD-95 PDZ3 domain [2],40.7 µM
same,Kd,PSD-95 PDZ2 domain [3],31.3 µM
same,Kd,SHANK2 PDZ domain [4],5.2 µM
B2,binding result,SHANK1 PDZ domain [5],binds
same,binding result,PSD-95 PDZ3 domain [6],binds
same,binding result,PSD-95 PDZ2 domain [7],binds
same,binding result,SHANK2 PDZ domain [8],binds
B3,binding result,talin1 R7R8 [9],binds
same,binding result,talin1 R8,binds
B4,fold weaker affinity than CDK1^206-223 with talin1 R7R8,talin1 R7R8 [10],2.5 fold
